Reference: publication PMC8156467, “Disruption of YY1-EZH2 Interaction Using Synthetic Peptides Inhibits Breast Cancer Development” (Cancers, 2021)

What was measured:
[1] = molecular target: enhancer of zeste homolog 2 (EZH2), endogenous (human (endogenous in MDA-MB-231)) (UniProt Q15910)
[2] = molecular target: Yin Yang 1 (YY1), endogenous (human (endogenous in MDA-MB-231)) (UniProt P25490)
Yin Yang 1 (YY1), endogenous (human (endogenous in MDA-MB-231)), sequence (P25490 whole entry): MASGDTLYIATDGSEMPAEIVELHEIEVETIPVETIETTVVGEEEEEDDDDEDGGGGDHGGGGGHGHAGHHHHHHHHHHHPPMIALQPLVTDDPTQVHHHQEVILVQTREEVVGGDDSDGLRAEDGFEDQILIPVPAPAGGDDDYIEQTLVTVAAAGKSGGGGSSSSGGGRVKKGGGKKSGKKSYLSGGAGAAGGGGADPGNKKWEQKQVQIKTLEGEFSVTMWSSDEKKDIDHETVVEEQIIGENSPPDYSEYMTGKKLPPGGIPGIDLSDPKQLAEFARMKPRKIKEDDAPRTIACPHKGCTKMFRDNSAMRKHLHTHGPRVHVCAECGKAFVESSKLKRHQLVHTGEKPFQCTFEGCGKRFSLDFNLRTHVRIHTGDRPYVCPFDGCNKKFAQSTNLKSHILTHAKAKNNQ

enhancer of zeste homolog 2 (EZH2), endogenous (human (endogenous in MDA-MB-231)), sequence (Q15910 whole entry): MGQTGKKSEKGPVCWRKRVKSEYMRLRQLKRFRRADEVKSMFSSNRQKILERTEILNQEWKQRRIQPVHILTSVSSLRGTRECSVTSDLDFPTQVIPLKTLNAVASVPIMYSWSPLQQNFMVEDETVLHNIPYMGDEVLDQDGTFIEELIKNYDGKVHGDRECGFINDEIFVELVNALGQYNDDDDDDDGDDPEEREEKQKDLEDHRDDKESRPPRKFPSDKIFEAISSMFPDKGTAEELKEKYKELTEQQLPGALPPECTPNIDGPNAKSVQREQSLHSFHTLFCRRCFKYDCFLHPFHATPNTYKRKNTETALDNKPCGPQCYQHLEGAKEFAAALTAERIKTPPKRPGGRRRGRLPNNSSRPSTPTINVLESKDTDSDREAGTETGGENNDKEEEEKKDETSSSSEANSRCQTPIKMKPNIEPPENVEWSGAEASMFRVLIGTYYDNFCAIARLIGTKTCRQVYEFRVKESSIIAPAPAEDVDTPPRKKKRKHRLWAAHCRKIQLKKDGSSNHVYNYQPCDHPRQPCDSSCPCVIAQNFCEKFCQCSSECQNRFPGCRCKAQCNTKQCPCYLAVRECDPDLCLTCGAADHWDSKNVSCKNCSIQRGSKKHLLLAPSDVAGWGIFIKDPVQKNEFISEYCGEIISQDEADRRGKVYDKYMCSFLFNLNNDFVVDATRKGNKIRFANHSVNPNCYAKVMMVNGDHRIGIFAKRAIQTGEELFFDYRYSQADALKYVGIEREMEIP
synthetic FITC-TAT-3×Glycine-OPB peptide, sequence (P25490 whole entry): as the sequence (P25490 whole entry) above

synthetic FITC-TAT-3×Glycine-OPB peptide (from UniProt P25490 201-226)
IC50 of cell viability (WST-1, 48 h) in MCF-7, MDA-MB-231 and MDA-MB-453 breast cancer cells; the peptide blocks YY1-EZH2 (m1 with m2) [1]: 20 µM

synthetic FITC-TAT-3×Glycine-YPB peptide (from UniProt Q15910-2 493-519)
IC50 of cell viability (WST-1, 48 h) in MCF-7, MDA-MB-231 and MDA-MB-453 breast cancer cells; the peptide blocks YY1-EZH2 (m1 with m2) [2]: 20 µM
